From article PMC7335091, “Mechanistic insights into chromatin targeting by leukemic NUP98-PHF23 fusion” (Nature Communications, 2020)
Substitutions are numbered along the chain they refer to. Read-outs that look alike come from different tables or passages of the source. Values belong to the molecule of their own block, whether it stands above or below them. Non-standard residues stand in square brackets, D forms with d. No end group written: not given here. Lys(Me3) = C[N+](C)(C)CCCC[C@H](N)C(=O)O

T1: PHF23 PHD finger (PHF23PHD) (Homo sapiens, UniProt Q9BUL5)
T1 construct: PHD domain (aa 338–393)
T1 sequence (Q9BUL5 338-393): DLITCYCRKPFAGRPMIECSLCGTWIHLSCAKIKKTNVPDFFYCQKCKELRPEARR

T2: PHD finger of PHF23 (aa 338-393), L358M cancer-relevant mutant (human, UniProt Q9BUL5 338-393, L358M)
T2 construct: human PHF23, PHD domain, aa 338-393, with the cancer-relevant mutation L358M (Cosmic); also called PHF23PHD L358M; source: E. coli BL21 (DE3) RIL, grown and purified as wild-type protein
T2 sequence (looked up): T1 sequence (Q9BUL5 338-393) with L21M

T3: PHD finger of PHF23 (aa 338-393), R345L cancer-relevant mutant (human, UniProt Q9BUL5 338-393, R345L)
T3 construct: human PHF23, PHD domain, aa 338-393, with the cancer-relevant mutation R345L (Cosmic); also called PHF23PHD R345L; source: E. coli BL21 (DE3) RIL, grown and purified as wild-type protein
T3 sequence (looked up): T1 sequence (Q9BUL5 338-393) with R8L

B1: histone H3K4me0 peptide (unmodified H3) (peptide)
chain: ARTKQTARKSTG
modifications: unmodified Lys4. Limits 1-12 taken from the H3K4me3 peptide of the same titration series
B2: histone H3K4me3 peptide (aa 1-12 of H3K4me3) (peptide, UniProt P68431 2-13, looked up)
peptide: ART[Lys(Me3)]QTARKSTG
notes: histone H3, residues 1-12, trimethylated on Lys4; source: synthetic peptide (SynPeptide)
B3: PHD finger of PHF23 (aa 338-393), wild type (domain or fragment, human, UniProt Q9BUL5 338-393, looked up)
chain: T1 sequence (Q9BUL5 338-393)
notes: human PHF23, PHD domain, aa 338-393, cloned into pGEX 6p-1; 15N- or 13C,15N-labelled for NMR; also called PHF23PHD; WT PHF23PHD; source: E. coli BL21 (DE3) RIL, purified (glutathione Sepharose 4B, GST cleaved, size exclusion chromatography)

What was measured:
[1] = molecular target: histone H3K4me3 peptide (Homo sapiens) (UniProt P68431); settings: cited from earlier work
[2] = molecular target: histone H3K4me3 peptide (Homo sapiens) (UniProt P68431); settings: cited from earlier work; remark: listed apart in the source
[3] = molecular target: T1, PHF23 PHD finger (PHF23PHD); test: 1H, […] HSQC NMR titration; nonreducing SDS-PAGE; assay type: binding
[4] = molecular target: PHD finger of PHF23 (aa 338-393), wild type (human) (UniProt Q9BUL5); test: other fluorescence titration; intrinsic tryptophan fluorescence, 25 °C; 2.0 µM PHF23PHD with increasing peptide, PBS (pH 6.5), 1 mM TCEP, excitation 295 nm; Kd averaged over three experiments
[5] = molecular target: B3; test: NMR titration; 1H,15N HSQC at 298 K; 0.1 mM 15N-labeled PHD in PBS (pH 6.5), 1 mM TCEP, 8% D2O; histone H3 peptide titrated in; Kd from chemical shift changes against peptide concentration; settings: both partners purified
[6] = molecular target: T2, PHD finger of PHF23 (aa 338-393), L358M …; test: other fluorescence titration; intrinsic tryptophan fluorescence, 25 °C; 2.0 µM PHF23PHD with increasing peptide, PBS (pH 6.5), 1 mM TCEP, excitation 295 nm; Kd averaged over three experiments; settings: both partners purified
[7] = molecular target: T3, PHD finger of PHF23 (aa 338-393), R345L …; test: as above; settings: both partners purified
[8] = molecular target: B3; test: as above; settings: both partners purified
[9] = molecular target: PHD finger of PHF23 (aa 338-393), L358M cancer-relevant mutant (human, UniProt Q9BUL5 338-393, L358M)
Target sequence in this assay (Q9BUL5 338-393 L358M): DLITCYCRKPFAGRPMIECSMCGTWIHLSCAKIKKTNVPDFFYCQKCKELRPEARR

[10] = molecular target: PHD finger of PHF23 (aa 338-393), R345L cancer-relevant mutant (human, UniProt Q9BUL5 338-393, R345L)
[11] = molecular target: the molecule itself; test: crystal structure; PHF23PHD crystallized in the presence of H3K4me3 peptide; 0.1 M Tris pH 8.65, 25% tert-butanol, 18 °C; 2.9 Å; the peptide is not in the structure

Molecule: KDM5A PHD (from UniProt P29375)
- Kd [1]: 0.9 µM

Molecule: BPTF PHD (from UniProt Q12830)
- Kd [2]: 3 µM

Molecule: CCN(CC)C(=S)SSC(=S)N(CC)CC [DS, disulfiram]
- 1H,15N HSQC NMR titration; nonreducing SDS-PAGE [3]: Gradual addition of AD or DS to PHF23PHD induced small but significant CSPs in the protein, indicative of direct interactions

- Kd [4]: 8 µM
Molecule: histone H3K4me2 peptide

Molecule: B1
- Kd [5]: 1600 µM

Molecule: B2
- binding result [6]: binds
- binding result [7]: binds
- Kd [8]: 2 µM
- Kd [9]: 2.4 µM
- Kd [10]: 4.3 µM

Molecule: B3
- binding result [11]: binds

- Kd [5]: 580 µM
Molecule: ARTK(Me)QTARKSTG [histone H3K4me1 peptide]
